These results are taken from the RNAGym collection of RNA variant scans (doi:10.1073/pnas.2313332121).

B1: TPR t1 (parent)
chain: GACCAAUCUGCCCUCAGAGCUCGAGAACAUCUUCGGAUGCAGAGGAGGCAGGCUUCGGUGGCGCGAUAGCGCCAACGUCCUCAACCUCCAAUGCAUCCCACCACAUGAUGAUGCCUGAAGAGCCUUGGUUUUUUG

This data set covers variants of B1. The data set is described as follows: polymerase ribozyme fitness, log enrichment relative to wild type (log ratio); higher = more active; in vitro selection for triplet polymerase activity. The method, boiled down: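 A single round of triplicate in vitro selection, including frozen incubation at −7 °C, was applied to PCR-built, transcribed mutant libraries of each subunit of a heterodimeric triplet polymerase ribozyme. Illumina sequencing of input and output libraries retained genotypes with ≥10 input reads and ≥1 read per output. Fitness is the base-2 logarithm of genotype enrichment divided by wild-type enrichment, from inverse-variance-weighted replicate averages.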
As for GACCAAUCUGCCUUCAGAGCUCGAGAACAUCUUCGGAUGCAGAGGAGGCAGGCUUCGGUGGCGCGAUAGCGCCAACGUCCUCAACCUCCAAUGCAUCCCACGACAUGAUGAUGCCUGAAGAGCCUUGGUUUUUUG, the “polymerase ribozyme fitness (log ratio)” value was -6.43. The same measure for GACCAAUCUGCCUUCAGAACUCGAGAACAUCUUCGGGUGCAGAGGAGGCAGGCUUCGGUGGCGCGAUAGCGCCAACGUCCUCAACCUCCAAUGCAUCCCACCACAUGAUGAUGCCUGAAGAGCCUUGGUUUUUUG: -2.93.

In the case of GACCAAUCUGCCUUCAGAGCUCGAGAACAUCUUCGGAUGCAGAGGAGGCAGGCUUCGGUGGCGCGAUAGCGCUAACGUCCUCAACCUCCAAUCCAUCCCACCACAAGAUGAUGCCUGGAGAGCCUUGGUUUUUUG, the “polymerase ribozyme fitness (log ratio)” value is -1.26. As for GACCAAUCUGCCUUCAGAGCUCGAGAACAUCUUCGGAUGCAGAGGAGGCAGGCUUCGGUGGCGCGAUAGCGCCAACGUCCUCAACCUCCAAUGCAUCCCACCACAUGAUGAUGCUUGAAGAGCCUUGGUUUUUUG, the “polymerase ribozyme fitness (log ratio)” value was -0.41. The same measure for GACCAAUCUGCCUUCAGAGCUCGAGAACAUCUUCGGAUGCAGAGGAGGCAGGCUUCGGUGGCGCGAUAGCGCCAACGUCCUCAACCUCGGAUGCAUCCCACCACAUGAUCAUGCCUGAAGAGCCUUGGUUUUUUG: -6.32; for GACCAAUCUGCCUUCAGAGCUCGAGAACAUCUUCGGAUGCAGAGGAGGCAGGCUUCGGUGGCGCGAUAGUGCCAACGUCCUCAACCUCCAAUGCAUCCCACCACAUGAUGAUGCCUGAAGAGCCUUGGUUUUUUG: -0.262.

Consider GACCAAUCUGCCUUCAGACCUCGAGAACAUCUUCGGAUGCAGAGGAGGCAGGCUUCGGUGGCGCGAUAGUGCCAACGUCCUCAACCUCCAAUGCAUCCCACCACAUGAUGAUGCCUGAAGAGCCUUGGUUUUUUG, for which the “polymerase ribozyme fitness (log ratio)” value was -2.89. For GACCAAUCUGCCUUCAGAGCUCGAGAACAUCUUCGGAUGCAGAGGAGGCAGGCUUCGGUGGCGCGAUAGCGCCAACGUACUCAACCUCCCAUGCAUCCCACCACAUGAUGAUGCCUGAAGAGCCUUGGUUUUUUG, the “polymerase ribozyme fitness (log ratio)” value is -2.88.

GACCAAUCUGCCUUCAGAGCUCGAGAACAUCUUCGGAUGCAGAGGAGGCAGGCUUCGGUGGCGCGAUAGCGCCAACGUCCUCAAUGUCCAAUGCAUCCCACCACAAGAUGAUGCCUGAAGAGCCUUGGUUUUUUG: the “polymerase ribozyme fitness (log ratio)” value is -0.767.

Turning to GACCAAUCUGCCUUCAGAGCUCGAGAACAUCUUCGGAUGCAGAGGAGGCAGGCUUCGGUGGCGCGAUAGCGCCAACGUGCUCGACCUCGAAUGCAUCCCACCACAUGAUGAUGCCUGAAGAGCCUUGGUUUUUUG, the “polymerase ribozyme fitness (log ratio)” value was -4.49.

Consider GACCAAUCUGCCUUCAGACCUCGAGAACAUCUUCGGAUGUAGAGGAGGCAGGCUUCGGUGGCGCGAUAGCGUCAACGUCCUCAACCUCCAAUGCAUCACACCACAUGAUUAUGCCUGAAGAGCCUUGGUUUUUUG, for which the “polymerase ribozyme fitness (log ratio)” value was -8.2.

In the case of GACCAAUCUGCCUUCAGAGCUCGAGAACAUCUUCGGAUGCAGAGGAGGCAGGCUUCGGUGGCGCGAUAGCGCGAACGUCCUUAACCUCCAAUGCAUCCCACCACAUGAUGAUGCCUGAAGAGCCUUGGUUUUUUG, the “polymerase ribozyme fitness (log ratio)” value is -1.5.

For GACCAAUCUGCCUUCAGAGCUCGAGAACAUCUUCGGAUGCAGAGGAGGCAGGCUUCGGUGGCGCGAUAGCGCCAACGUCCUCAACGUCCAAUGCAUCCCACCACAUGAUGAUGCCUGAAGAGCCUUGGUUUUUUG, the “polymerase ribozyme fitness (log ratio)” value is -0.454.

Consider GACCAAUCUGCCUUCAGAGCUCGAGAACAUCUUCGGAUGCAGAGGAGGCAGGCUUCGGUGGCGCGAUAGCGCCAACGUCCUCAACCUCCAAUGCAUCCCACCACAUGAUGAUGCCUGAAGAGCAUUGGUUUUUUG, for which the “polymerase ribozyme fitness (log ratio)” value came out at 1.91. GACCAAUCUGCCUUCAGAGCUCGAGAACAUCUUCGAAUGCAGAGGAGGCAGGCUUCGGUGGCGUGAUAGCGCCAACGUCCUCAACCUCCAAUGCAUCCCACCACAUGAUGAUGCCUGAAGAGCCUUGGUUUUUUG: the “polymerase ribozyme fitness (log ratio)” value is -0.484. The same measure for GACCAAUCUGCCUUCAGAGCUCGAGAACAUCUUCGGAUGCAGAGGAGGCAGGCUUCGGUGGCGCGAUAGCGCCAACGUCCUCAACCUCCAAUGCAUCCCACCACAUGAUGAUGCCUGAAGAGGCUUGGUUUUUUG: 2.04; for GACCAAUCUGCCUUCAGAGCUCGAGAACAUCUUCGGAUGCAGAGGAGGCAGGCUUCGGUGGCGCGAUAGCGCCAACGUACUCAACCUCCAAUGCAUCCCACCAAAUGAUGAUGCCUGAAGAGCCUUGGUUUUUUG: -2.96; for GACCAAUCUGCCUUCAGAGCUCGAGAACAUCUUCGGAUGCAGAGGAGGCAGGCUUCGGUGGCGCGAUAGCGCCAACGUCCUUAAACUCCAAUGCAUCCCACCACAUGAUGAUGCCUAAAGAGCCUUGGUUUUUUG: -2.68. The figure for GACCAAUCUGCCUUCAGAGCUCGAGAACAUCUUCGGAUGCAGAGGAGGCAGGCUUCGGUGGCGCGAUAGCGCCAACGUCCUCAACCUCCAAUGCAUCCCACCACAUGAUGAUGCUUCAAGAGCCUUGGUUUUUUG is -6.41; for GACCAAUCUGCCUUCAGAGCUCGAGAACAUCUUCGGAUGCAGAGGAGGCAGGCUUCGGUGGCGCGAUAGCGGCAACGUCCUCAACCUCCAAUGCAUCCCACCACAUGAUGAUGCCUGAAGAGCCUUGGUUUUUUG it is -0.128; for GACCAAUCUGCCUUCAGAGCUCGAGAACAUCUUCGGAUGCAGAGGAGGCAGGCUUCGGUGGCGCGAUAGCGACAACGUCCUCAACCUCCAAUGCAUCCCACCACAUGAUGAUGCCUGAAGAGCCUUGGUUUUUUG it is 0.891. The same measure for GACCAAUCUGCCUUCAGAGCUCGAGAACAUCUUCGAAUGCAGAGGAGGCAGGCUUCGGUGGCGCGAUAGCGCCAACGUCCUCAACCUCCAAUGCAUCCCACCACAUGAUGAUGCCUGAAGAGCCUUGGUUUUUUG: -0.918.

For the variant GACCAAUCUGCCUUCAGAGCUCGAGAACAUCUUCGGAUGCAGAGGAGGCAGGCUUCGGUGGCGCGAUAGCGCCAACGUCCUCAACCUCCAAUGUCUCCCACCACAUGAUGAUGCCUGAAGAGCCUUGGUUUUUUG, the “polymerase ribozyme fitness (log ratio)” value is -1.52. The same measure for GACCAAUCUGCCUUCAGAUCUCGAGAACAUCUUCGGAUGCAUAGGAGGCAGGCUUCGGUAGCGCGAUAGCGCCAACGUCCUCAACCUCCAAUGCAUCCCACCACAUGAUUAUGCCUGAAGAGCCUUGGUUUUUUG: -5.83. The same measure for GACCAAUCUGCCUUCAGAUCUCGAGAACAUCUUCGGAUGCAGAGGAGGCGGGCUUCGGUGGCGCGAUAGCGCCAACGUCCUCAACCUCCAUUGCAUCCCACCACAUGAUGAUGCCUGAAGAGCCUUGGUUUUUUG: -2.58; for GACCAAUCUGCCUUCAGAGCUCGAGAACAUCUUCGGAUGCAGAGGAGGCAGGCUUCGGUGGCGCGAUAGCGCGAACGUCCUCAACCUCCAAUGCAUCCCACCACAUGAUGAUGCCUAAAGAGCAUUGGUUUUUUG: 0.844. The same measure for GACCAAUCUGCCUUCAGAGCUCGAGAACAUCUUCGGAUGCAGAGGAGGCAGGCUUCGGUGGCGCGAUAGCGCGAACGUCCUCAACCUCCAAUGCAUCCCACCACAUGAUGAUGCCUGAAGAGCCUUGGUUUUUUG: -0.465. As to GACCAAUCUGCCUUCAGAGCUCGAGAACAUCUUCGGAUGCAGAGGAGGCAGGCUUCGGUGGCGCGAUAGCGCCAACGUCCUCAAGCUCCAAUGCAUCCCACCACAUGAUGAUGCCUGAAGAGUCUUGGUUUUUUG, the “polymerase ribozyme fitness (log ratio)” value was 0.618. The same measure for GACCAAUCUGCCUUCAGAGCUCAAGGACAUCUUCGGAUGCAGAGGAGGCAGGCUUCGGUGACGCGAUAGCGCCAACGUUCUCAACCUCCAAUGCAUCCCACCACACGAUGAUGCCUGAAGAGCCUUGGUUUUUUG: -4.2; for GACCAAUCUGCCUUCAAAGCUCGAGAACAUCUUCGGAUGCAGAGGAGGCAGGCUUCGGUGGUGCGAUAGCGCCAACGACCACAACCUCCAAUGCAUCCCACCACAUGAUGAAGCCUGAAGAGCCUUGGUUUUUUG: -4.61; for GACCAAUCUGCCUUCAGAGCUCGAGAACAUCUUCGGAUGCAGAGGAGGCAGGCUUCGGUGGCGCGAUAGCGCCAACGUCCUCAACCUCCAAUGCAUCCCACCACAUGAUGAUGACUGAAGAGCCUUGGUUUUUUG: -1.07.

Take GACCAAUCUGCCUUCAGAGCUCGAGAACAUCUUCGGAUGCAGAGGAGGCAGGCUUCGGUGGCGCGAUAGCGCCAACGUCCUCAACCUCCAAUGCAUCCCACCACAUGAUGAUGGCUGAAGAGCCUUGGUUUUUUG: the “polymerase ribozyme fitness (log ratio)” value was -1.34.

In the case of GACCAAUCUGCCUUCAGAGCUCGAGAACAUCUUCGCAUGCAGUGGAGGCAGGCUUCGGUGGCGCGAUAGCGCCAACGUCCUCAACCUCCAAUGCAUCCCACCACAUGAUGAGGCCUGAAGAGCCUUUAUUUUUUG, the “polymerase ribozyme fitness (log ratio)” value is -5.23. The figure for GACCAAUCUGCCUUCAGAGCUCGAGAACAUCUUCGGAUGCAGAGGAGGCAGGCUUCGGUGGCGCGAUAGCGCCAACGUCCUCAACCUCCAAUGCAUCCUACCACAUGAUGAUGCCUGAAGAGCCUUGGUUUUUUG is -2.12; for GACCAAUCUGCCUUCAGAGCUCGAGAACAUCUUCGGAUGCAGAGGAGGCAGGCUUCGGUGGCGCGAUAGCGGCAACGUCCCCAACCUCCAAUGCCUCCCACCACAUGAUGAUGCCUGAUGAGCCUUGGUUUUUUG it is -1.87.

For GACCAAUCUGCCUUCAGAGCUCGACAACAUCUGCGGAUGCAGAGGAGGCAGGCUUCGGUGGCGCGAUAGUGCCAACGUCCACAACCUCCAAUGCAUCCCACCACAUGAAGAUGCCUGAAGAGCCUUGGUUUUUUG, the “polymerase ribozyme fitness (log ratio)” value was -6.3. In the case of GACCAAUCUGCCUUCAGAGCUCGAGAACAUCUUCGGAUGCAGAGGAGGCAGGCUUCGGUGGCGCGAUAGCGCCAACGUCCUCAAACUCCACUGCAUCCCACCAAAUGAUGAUGCCUGAACAGCCUUGGUUUUUUG, the “polymerase ribozyme fitness (log ratio)” value was -3.62.

GACCAAUCUGCCUUCAGAGCUCGAGAACAUCUUCGGAUGCAGAGGAGGCAGGCUUCGGUGGCGCGAUAGCGCCAACGUCCUCAACCUCCAAUGCAUUCCACCACAUGAUGAUGCCUGAAGAGCCUUGGUUUUUUG: the “polymerase ribozyme fitness (log ratio)” value is -1.03. With GACCAAUCUGCCUUCAGAGCUCGAGAACAUCUUCGGAUGCAGAGGAGGCAGGCUUCGGUGGCGCGAUAGCGCCAACGUCCUCAACCUCCAAUGCAUACCACCACAUGAUGAUGCCUGAAGAGCCUUGGUUUUUUG, the “polymerase ribozyme fitness (log ratio)” value was -3.93.

As for GACCAAUCUGCCUUCAGAGCUCGAGAACAUCUUCGGAUGCAGAGGAGGCAGGCUUCGGUGGCGCGAUAGCGCCAAUGUCCUCAACGUCCAAUGCAUCCCACCACAUGAUGAUGCCUGAAGAGCCUUGGUUUUUUG, the “polymerase ribozyme fitness (log ratio)” value is -2.13. GACCAAUCUGCCUUCAGAGCUCGAGAACAUCUUCGGAUGCAGAGGAGGCAGGCUUCGGUGGCGCGAUAGCGCCAACGUCUUCAACCUCCAAUGCAUCCCACCACAUGAUGAUGCCUGAAGAGCCUUGGUUUUUUG: the “polymerase ribozyme fitness (log ratio)” value was -0.427. The figure for GACCAAUCUGCCUUCAGAGCUCGAGAACAUCUUCGGAUGCAGAGGAGGCAGGCUUCGGUGGCGCGAUAGCGCCAACGUCCUCAACCUCCAAUGCAUCCCACCACAUGAUGAUGCCUGAAGAGCAUUGAUUUUUUG is 0.853.
